Assay results reported in PMC12000298 (Communications Biology, 2025).
Like-named read-outs stand apart in the source and are kept apart here.

B1: Ube2G2 (untagged, from 6xHis-SUMO-Ube2G2) (enzyme)
chain: MAGTALKRLMAEYKQLTLNPPEGIVAGPMNEENFFEWEALIMGPEDTCFEFGVFPAILSFPLDYPLSPPKMRFTCEMFHPNIYPDGRVCISILHAPGDDPMGYESSAERWSPVQSVEKILLSVVSMLAEPNDESGANVDASKMWRDDREQFYKIAKQIVQKSLGL
B2: CUE-G2BR^AUP1 (AUP1 C-terminal region, aa292-410) (domain or fragment)
chain: SPDVQLATLAQRVKEVLPHVPLGVIQRDLAKTGCVDLTITNLLEGAVAFMPEDITKGTQSLPTASASKFPSSGPVTPQPTALTFAKSSWARQESLQERKQALYEYARRRFTERRAQEAD

How the values were obtained:
Experiment in all cases: SEC
[1] = biological target: GST-Gp78c (aa309-643, RING-CUE-G2BR) (UniProt Q9UKV5 309-643)
[2] = biological target: B1
[3] = biological target: B1; remark: listed apart in the source

GST-Gp78c (aa309-643, RING-CUE-G2BR), sequence (Q9UKV5 309-643): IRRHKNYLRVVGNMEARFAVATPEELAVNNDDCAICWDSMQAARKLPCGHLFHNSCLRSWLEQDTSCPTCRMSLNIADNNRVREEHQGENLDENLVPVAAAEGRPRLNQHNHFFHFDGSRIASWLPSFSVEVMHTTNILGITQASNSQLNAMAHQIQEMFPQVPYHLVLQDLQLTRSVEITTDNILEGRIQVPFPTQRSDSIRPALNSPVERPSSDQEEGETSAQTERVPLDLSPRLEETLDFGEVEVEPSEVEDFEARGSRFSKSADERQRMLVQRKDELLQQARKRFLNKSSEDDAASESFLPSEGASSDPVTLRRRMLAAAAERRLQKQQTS

binding result [3]	further results	Binder
	binding result [1]: binds	B1
	binding result [2]: binds	B2
binds		GGSSSADERQRMLVQRKDELLQQARKRFLNKS [SBP-His6-G2BR^Gp78]
binds		GGSSSSWARQESLQERKQALYEYARRRFTER [SBP-His6-G2BR^AUP1]
